The source of these data is article PMC4931251, “Characterization of the targeting signal in mitochondrial β-barrel proteins” (Nature Communications, 2016).

The target in the assay is T1, cytosolic receptor domain of rat Tom20 (dTom20), uniformly 15N-labelled (Rattus norvegicus, UniProt Q62760 51-145, uniformly [15N]-labelled).
T1 construct: Tom20 from Rattus norvegicus, cytosolic receptor domain, residues 51-145; Cloned into pET-22b without the stop codon; also called [15N]-dTom20; rat dTom20; source: E. coli BL21(DE3), purified (Ni-NTA, gel filtration on Superdex 200)
T1 sequence (looked up): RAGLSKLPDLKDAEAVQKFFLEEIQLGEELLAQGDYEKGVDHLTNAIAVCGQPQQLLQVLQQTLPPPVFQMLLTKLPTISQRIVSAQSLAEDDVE
Kind of assay: NMR titration; [1H,15N]-HSQC of 210 μM [15N]-dTom20 in 20 mM KPi pH 6.4, 50 mM KCl, 5% DMSO; aliquots of 10 mM unlabelled cyclic peptide in DMSO added (two molar excess); DMSO effect subtracted. Particulars: both partners purified.

B1: cyclic β-hairpin peptide derived from human voltage-dependent anion channel 1 (hVDAC1) (peptide)
peptide: LTLSALLDGKNVNAGGHKLGLGLPP
modifications: head-to-tail cyclised: the new C terminus (after the two added Pro) covalently linked to the N terminus
notes: human voltage-dependent anion channel 1 (hVDAC1), last two β-strands and the loop between them, a.a; L257 to L279; residue numbers correspond to full-length hVDAC1; two Pro residues added to the C terminus (told in words); Measured mass [M+H]+ = 2,436.48; also called cyclic peptide; source: synthetic peptide (Fmoc/tBu chemistry, cyclised, purified by RP-HPLC)
For the molecule B1, the binding result is recorded as “binds”.
